Measured values taken from paper PMC8641930, “PLK1 regulates the PrimPol damage tolerance pathway during the cell cycle” (Science Advances, 2021).

B1: PrimPol CTD (PrimPol 480-560) (domain or fragment, human, UniProt Q96LW4 480-560, looked up)
chain: TTDEADETRSNETQNPHKPSPSRLSTGASADAVWDNGIDDAYFLEATEDAELAEAAENSLLSYNSEVDEIPDELIIEVLQE
notes: also called C-terminal region of WT PrimPol; PrimPol C-terminal domain; source: E. coli BL21, purified (Ni-NTA, Q-Sepharose, Superdex 75 SEC)
B2: PrimPol CTD (PrimPol 480-560) S538A (domain or fragment, human, UniProt Q96LW4 480-560, looked up)
chain: TTDEADETRSNETQNPHKPSPSRLSTGASADAVWDNGIDDAYFLEATEDAELAEAAENALLSYNSEVDEIPDELIIEVLQE
notes: Primase-Polymerase (PrimPol), human, C-terminal domain, residues 480-560, phospho-null mutant S538A; also called C-terminal region of mutant PrimPol; CTD S538A; source: E. coli BL21, purified (Ni-NTA, Q-Sepharose, Superdex 75 SEC)
B3: PrimPol CTD (PrimPol 480-560) S538E (domain or fragment, human, UniProt Q96LW4 480-560, looked up)
chain: TTDEADETRSNETQNPHKPSPSRLSTGASADAVWDNGIDDAYFLEATEDAELAEAAENELLSYNSEVDEIPDELIIEVLQE
notes: Primase-Polymerase (PrimPol), human, C-terminal domain, residues 480-560, phosphomimetic mutant S538E; also called C-terminal region of mutant PrimPol; CTD S538E; source: E. coli BL21, purified (Ni-NTA, Q-Sepharose, Superdex 75 SEC)

molecular target: T1, RPA70N (RPA70 1-120) (UniProt P27694 1-120); assay: SEC; analytical size exclusion chromatography, Superdex 75 10/300 GL; 50 mM tris-HCl, 100 mM NaCl, 2 mM TCEP; CTD variants mixed with RPA70N at 35 uM; interaction read as a shift of the peaks relative to the single proteins; details: both partners purified
T1 construct: Replication Protein A 70 kDa subunit (RPA70), N-terminal domain, residues 1-120; source: E. coli BL21, purified (Ni-NTA, thrombin cleavage of the tag, Superdex 75 SEC)
T1 sequence (P27694 1-120): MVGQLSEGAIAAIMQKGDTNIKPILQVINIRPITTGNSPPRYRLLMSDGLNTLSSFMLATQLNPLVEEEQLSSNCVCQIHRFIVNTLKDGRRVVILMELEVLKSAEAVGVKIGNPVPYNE

Binding result, binds:
B1, B2, B3
